From publication PMC12561426, “Dissecting the Interplay Between NRF2 and BACH1 at CsMBEs”

Assays:
[1] = target: BACH1 DBD of BACH1-sMafGχ;sMafG DBD of chimeras (Homo sapiens?;Homo sapiens?, UniProt O14867;O15525 511-627;1-162, |); assay: EMSA; apparent; TEV and 3C cleaved; 150 mM NaCl, 50 mM HEPES pH 7.9, 10% glycerol, 1 mM TCEP, 1 mM DTT, 2 mM MgCl2; 3 nM DNA; TEV and 3C 50 ug/mL each, 4 h 25 °C; competition then O/N 4 °C; gels 4 °C in 1X TBE; details: protein: recombinant;recombinant; tags: 3C/TEV-cleavable linker with His tags to sMafG;fused C-terminal of the linker; copies: 1;1; label: 5' fluorescein on forward strand; blunt
[2] = target: NRF2 DBD of NRF2-sMafGχ;sMafG DBD of chimeras (Homo sapiens?;Homo sapiens?, UniProt Q16236;O15525 451-567;1-162, |); assay: as above; details: protein: recombinant;recombinant; tags: 3C/TEV-cleavable linker with His tags to sMafG;fused C-terminal of the linker; copies: 1;1; label: 5' fluorescein on forward strand; blunt

B1: HMOX1 CsMBE 30-mer (dsDNA)
DNA 1: CTCGGGACCGTGACTCAGCAGGAAAAACAC
DNA 2: GTGTTTTTCCTGCTGAGTCACGGTCCCGAG
Kd [1]: 49 ± 1.9 nM
Kd [2]: 58 ± 3 nM
